Data taken from PMC10565641.

How the values were obtained:
Myc-tagged TCF7L2 = Myc-tagged TCF7L2 (UniProt Q9NQB0); test: co-immunoprecipitation (anti-FLAG IP, immunoblot densitometry); details: HEK293T cells, transfected; densitometry mean of three independent experiments; parent: 1.0
Myc-tagged LEF1 = Myc-tagged LEF1 (UniProt Q9UJU2); test: as above; details: HEK293T cells, transfected; densitometry mean of three independent experiments; parent: 1.0
Sequence of UniProt Q9UJU2 (Q9UJU2 whole entry): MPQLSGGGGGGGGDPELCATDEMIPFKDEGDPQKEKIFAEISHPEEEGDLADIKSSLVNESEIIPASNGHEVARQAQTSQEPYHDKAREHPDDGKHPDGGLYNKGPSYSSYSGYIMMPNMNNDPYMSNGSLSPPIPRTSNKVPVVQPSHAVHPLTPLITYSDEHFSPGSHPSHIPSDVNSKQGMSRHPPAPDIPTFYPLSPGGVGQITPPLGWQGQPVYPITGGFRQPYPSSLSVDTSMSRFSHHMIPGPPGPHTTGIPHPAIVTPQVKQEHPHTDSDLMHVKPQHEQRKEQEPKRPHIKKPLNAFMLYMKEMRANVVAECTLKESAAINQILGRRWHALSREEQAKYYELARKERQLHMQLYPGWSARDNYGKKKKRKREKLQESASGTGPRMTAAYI

Sequence of UniProt Q9NQB0 (Q9NQB0 whole entry): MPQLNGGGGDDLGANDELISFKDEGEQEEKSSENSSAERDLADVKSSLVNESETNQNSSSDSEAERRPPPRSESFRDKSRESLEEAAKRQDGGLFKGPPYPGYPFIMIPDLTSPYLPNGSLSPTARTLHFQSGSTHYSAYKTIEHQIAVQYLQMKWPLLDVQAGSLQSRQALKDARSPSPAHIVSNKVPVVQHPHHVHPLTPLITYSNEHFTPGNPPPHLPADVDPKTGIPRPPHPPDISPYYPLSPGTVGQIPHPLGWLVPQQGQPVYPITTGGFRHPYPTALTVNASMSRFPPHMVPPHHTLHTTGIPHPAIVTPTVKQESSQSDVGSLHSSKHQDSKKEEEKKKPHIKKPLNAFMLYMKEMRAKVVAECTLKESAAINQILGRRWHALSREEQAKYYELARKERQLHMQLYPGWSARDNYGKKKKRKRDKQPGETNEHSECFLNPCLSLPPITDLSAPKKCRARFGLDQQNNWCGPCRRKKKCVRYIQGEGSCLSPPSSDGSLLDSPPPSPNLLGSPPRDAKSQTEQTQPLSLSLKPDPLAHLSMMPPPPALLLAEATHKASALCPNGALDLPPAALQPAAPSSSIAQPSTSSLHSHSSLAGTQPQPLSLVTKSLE

- ratio to parent (Myc-tagged TCF7L2): 0.17
- ratio to parent (Myc-tagged LEF1): 0.44
Substance: FLAG-V5-tagged FBXW7α, wild type (from UniProt Q969H0) WD40 (three arginine residues within one WD40 repeat mutated; lane label WD)
